Source: patent publication US20180303952A1

Key:
[1] = target: human CD147 on the surface of human cell lines (human) (UniProt P35613); assay: FACS on human KYSE-70 esophageal epithelial cell line, Alexa Fluor 647 goat anti-human IgG detection
[2] = target: human CD147 on the surface of human cell lines (human) (UniProt P35613); assay: cell-based or functional assay

B1: humanized anti-human CD147 monoclonal antibody hu 3A11 Lc1/Hc1 (antibody, V domains shown)
VH: EVQLVESGGGLVQPGGSLRLSCAASGFTFSNYWMDWVRQAPGKGLEWVGEIRLKSYNYATHYAASVKGRFTISRDDSKNSVYLQMNSLKTEDTAVYYCTAAGTDYWGQGTLVTVSS
VL: DIQMTQSPSSLSASVGDRVTITCRASQSVRTDVGWYQQKPGKAPKLLIYYSSNRYTGVPSRFSGSGSGTDFTLTISSLQPEDFATYYCQQDYSSPYTFGQGTKLEIK
- Kd [1]: 1.65 nM
- EC50 of cytotoxicity, A253 cells (with vc-MMAE secondary antibody) [2]: < 1 nM
- EC50 of cytotoxicity, BHY cells (with vc-MMAE secondary antibody) [2]: < 1 nM
- EC50 of cytotoxicity, Detroit562 cells (with vc-MMAE secondary antibody) [2]: 0.008 nM
- EC50 of cytotoxicity, EFO-21 cells (with vc-MMAE secondary antibody) [2]: 1.4 nM
- EC50 of cytotoxicity, H69 cells (with vc-MMAE secondary antibody) [2]: 1 nM
- EC50 of cytotoxicity, H292 cells (with vc-MMAE secondary antibody) [2]: 0.07 nM
- EC50 of cytotoxicity, H358 cells (with vc-MMAE secondary antibody) [2]: 0.09 nM
- EC50 of cytotoxicity, H520 cells (with vc-MMAE secondary antibody) [2]: 11.2 nM
- EC50 of cytotoxicity, H1581 cells (with vc-MMAE secondary antibody) [2]: 0.039 nM
- EC50 of cytotoxicity, H1975 cells (with vc-MMAE secondary antibody) [2]: 0.09 nM
- EC50 of cytotoxicity, H2405 cells (with vc-MMAE secondary antibody) [2]: 0.3 nM
- EC50 of cytotoxicity, H2444 cells (with vc-MMAE secondary antibody) [2]: 1.8 nM
- EC50 of cytotoxicity, HCC 70 cells (with vc-MMAE secondary antibody) [2]: 0.94 nM
- EC50 of cytotoxicity, HCC1143 cells (with vc-MMAE secondary antibody) [2]: < 1 nM
- EC50 of cytotoxicity, HCC 1806 cells (with vc-MMAE secondary antibody) [2]: 0.68 nM
- EC50 of cytotoxicity, HCC1937 cells (with vc-MMAE secondary antibody) [2]: < 1 nM
- EC50 of cytotoxicity, HCC1954 cells (with vc-MMAE secondary antibody) [2]: < 1 nM
- EC50 of cytotoxicity, HCT 116 cells (with vc-MMAE secondary antibody) [2]: 1.8 nM
- EC50 of cytotoxicity, HPAC cells (with vc-MMAE secondary antibody) [2]: 0.21 nM
- EC50 of cytotoxicity, HPAF2 cells (with vc-MMAE secondary antibody) [2]: < 1 nM
- EC50 of cytotoxicity, KYSE70 cells (with vc-MMAE secondary antibody) [2]: 0.13 nM
- EC50 of cytotoxicity, KYSE150 cells (with vc-MMAE secondary antibody) [2]: 1.6 nM
- EC50 of cytotoxicity, LOVO cells (with vc-MMAE secondary antibody) [2]: < 1 nM
- EC50 of cytotoxicity, LS174T cells (with vc-MMAE secondary antibody) [2]: 1 nM
- EC50 of cytotoxicity, LS411N cells (with vc-MMAE secondary antibody) [2]: < 1 nM
- EC50 of cytotoxicity, PC3 cells (with vc-MMAE secondary antibody) [2]: < 1 nM
- EC50 of cytotoxicity, RT11-2/84 cells (with vc-MMAE secondary antibody) [2]: 1.94 nM
- EC50 of cytotoxicity, SCC1 cells (with vc-MMAE secondary antibody) [2]: 0.14 nM
- EC50 of cytotoxicity, SCC9 cells (with vc-MMAE secondary antibody) [2]: 0.37 nM
- EC50 of cytotoxicity, SCC25 cells (with vc-MMAE secondary antibody) [2]: 0.2 nM
- EC50 of cytotoxicity, SKOV3 cells (with vc-MMAE secondary antibody) [2]: 0.95 nM
- EC50 of cytotoxicity, SW1417 cells (with vc-MMAE secondary antibody) [2]: 0.8 nM
- EC50 of cytotoxicity, aspc1 cells (with vc-MMAE secondary antibody) [2]: 20.5 nM
- EC50 of cytotoxicity, miapaca1 cells (with vc-MMAE secondary antibody) [2]: 0.65 nM
- EC50 of cytotoxicity, sw48 cells (with vc-MMAE secondary antibody) [2]: < 1 nM
- EC50 of cytotoxicity, sw480 cells (with vc-MMAE secondary antibody) [2]: < 1 nM
- EC50 of in vitro cytotoxicity, A253 cells (with vc-MMAE secondary antibody) [2]: < 1 nM
- EC50 of in vitro cytotoxicity, AGS cells (with vc-MMAE secondary antibody) [2]: 0.09 nM
- EC50 of in vitro cytotoxicity, BHY cells (with vc-MMAE secondary antibody) [2]: < 1 nM
- EC50 of in vitro cytotoxicity, Detroit562 cells (with vc-MMAE secondary antibody) [2]: 0.008 nM
- EC50 of in vitro cytotoxicity, EFO-21 cells (with vc-MMAE secondary antibody) [2]: 1.4 nM
- EC50 of in vitro cytotoxicity, ESO26 cells (with vc-MMAE secondary antibody) [2]: 0.06 nM
- EC50 of in vitro cytotoxicity, FLO-1 cells (with vc-MMAE secondary antibody) [2]: 0.51 nM
- EC50 of in vitro cytotoxicity, H69 cells (with vc-MMAE secondary antibody) [2]: 1 nM
- EC50 of in vitro cytotoxicity, H226 cells (with vc-MMAE secondary antibody) [2]: 0.45 nM
- EC50 of in vitro cytotoxicity, H292 cells (with vc-MMAE secondary antibody) [2]: 0.07 nM
- EC50 of in vitro cytotoxicity, H358 cells (with vc-MMAE secondary antibody) [2]: 0.09 nM
- EC50 of in vitro cytotoxicity, H520 cells (with vc-MMAE secondary antibody) [2]: 11.2 nM
- EC50 of in vitro cytotoxicity, H1581 cells (with vc-MMAE secondary antibody) [2]: 0.039 nM
- EC50 of in vitro cytotoxicity, H1975 cells (with vc-MMAE secondary antibody) [2]: 0.09 nM
- EC50 of in vitro cytotoxicity, H2052 cells (with vc-MMAE secondary antibody) [2]: 0.03 nM
- EC50 of in vitro cytotoxicity, H2405 cells (with vc-MMAE secondary antibody) [2]: 0.3 nM
- EC50 of in vitro cytotoxicity, H2444 cells (with vc-MMAE secondary antibody) [2]: 1.8 nM
- EC50 of in vitro cytotoxicity, H2452 cells (with vc-MMAE secondary antibody) [2]: 0.94 nM
- EC50 of in vitro cytotoxicity, HCC 70 cells (with vc-MMAE secondary antibody) [2]: 0.94 nM
- EC50 of in vitro cytotoxicity, HCC1143 cells (with vc-MMAE secondary antibody) [2]: < 1 nM
- EC50 of in vitro cytotoxicity, HCC 1806 cells (with vc-MMAE secondary antibody) [2]: 0.68 nM
- EC50 of in vitro cytotoxicity, HCC1937 cells (with vc-MMAE secondary antibody) [2]: < 1 nM
- EC50 of in vitro cytotoxicity, HCC1954 cells (with vc-MMAE secondary antibody) [2]: < 1 nM
- EC50 of in vitro cytotoxicity, HCT 116 cells (with vc-MMAE secondary antibody) [2]: 1.8 nM
- EC50 of in vitro cytotoxicity, HPAC cells (with vc-MMAE secondary antibody) [2]: 0.21 nM
- EC50 of in vitro cytotoxicity, HPAF2 cells (with vc-MMAE secondary antibody) [2]: < 1 nM
- EC50 of in vitro cytotoxicity, HT29 (WIDR) cells (with vc-MMAE secondary antibody) [2]: 0.87 nM
- EC50 of in vitro cytotoxicity, Hs 746T cells (with vc-MMAE secondary antibody) [2]: 0.06 nM
- EC50 of in vitro cytotoxicity, KYSE70 cells (with vc-MMAE secondary antibody) [2]: 0.13 nM
- EC50 of in vitro cytotoxicity, KYSE150 cells (with vc-MMAE secondary antibody) [2]: 0.88 nM
- EC50 of in vitro cytotoxicity, KYSE410 cells (with vc-MMAE secondary antibody) [2]: 1.35 nM
- EC50 of in vitro cytotoxicity, LOVO cells (with vc-MMAE secondary antibody) [2]: < 1 nM
- EC50 of in vitro cytotoxicity, LS174T cells (with vc-MMAE secondary antibody) [2]: 1 nM
- EC50 of in vitro cytotoxicity, LS411N cells (with vc-MMAE secondary antibody) [2]: < 1 nM
- EC50 of in vitro cytotoxicity, MSTO-211H cells (with vc-MMAE secondary antibody) [2]: 0.37 nM
- EC50 of in vitro cytotoxicity, OACM5.1 C cells (with vc-MMAE secondary antibody) [2]: 1.1 nM
- EC50 of in vitro cytotoxicity, OE33 cells (with vc-MMAE secondary antibody) [2]: 0.29 nM
- EC50 of in vitro cytotoxicity, PC3 cells (with vc-MMAE secondary antibody) [2]: < 1 nM
- EC50 of in vitro cytotoxicity, RT11-2/84 cells (with vc-MMAE secondary antibody) [2]: 1.94 nM
- EC50 of in vitro cytotoxicity, SCC1 cells (with vc-MMAE secondary antibody) [2]: 0.14 nM
- EC50 of in vitro cytotoxicity, SCC9 cells (with vc-MMAE secondary antibody) [2]: 0.37 nM
- EC50 of in vitro cytotoxicity, SCC25 cells (with vc-MMAE secondary antibody) [2]: 0.2 nM
- EC50 of in vitro cytotoxicity, SK-GT-4 cells (with vc-MMAE secondary antibody) [2]: < 0.1 nM
- EC50 of in vitro cytotoxicity, SKBR3 cells (with vc-MMAE secondary antibody) [2]: 0.38 nM
- EC50 of in vitro cytotoxicity, SKOV3 cells (with vc-MMAE secondary antibody) [2]: 0.95 nM
- EC50 of in vitro cytotoxicity, SNU-1 cells (with vc-MMAE secondary antibody) [2]: 0.21 nM
- EC50 of in vitro cytotoxicity, SNU-5 cells (with vc-MMAE secondary antibody) [2]: 0.11 nM
- EC50 of in vitro cytotoxicity, SNU-16 cells (with vc-MMAE secondary antibody) [2]: 1.14 nM
- EC50 of in vitro cytotoxicity, SW1417 cells (with vc-MMAE secondary antibody) [2]: 0.8 nM
- EC50 of in vitro cytotoxicity, aspc1 cells (with vc-MMAE secondary antibody) [2]: 20.5 nM
- EC50 of in vitro cytotoxicity, miapaca1 cells (with vc-MMAE secondary antibody) [2]: 0.65 nM
- EC50 of in vitro cytotoxicity, sw48 cells (with vc-MMAE secondary antibody) [2]: < 1 nM
- EC50 of in vitro cytotoxicity, sw480 cells (with vc-MMAE secondary antibody) [2]: < 1 nM
